Data taken from the DeepSol protein solubility set.

Assay: soluble on expression in E. coli; label from the status in PepcDB or PDB records

Row | Sequence | soluble on expression in E. coli
1 | MKGILGFEYGIVQAPLGPDISGPELVAAVANAGGIGLLRCPDWECPDYLRELIRKTKTLTEKPFGIGVVLAFPHDLNIKTILEEKVAVLQLYWGDCSQELVDDAHFAGVKVIPQVGNVEEARKAVAVGVDAIIVQGREAGGHVIGKDGLFSLLPRVVDLVGERDIPVIAAGGIVDGRGYVAALSLGAQGVCLGTRFVATHESYAHPIYKRKLIEYEKTEYTDVFGRARWPGAPQRVLETPFFDDWRSLPAHENEVNQPIIGRSTIHGVEKEIRRFSGTVPNMTTTGDLESMAMYAGQSVGLIKEILPAGEVVKSLVEEAQALILQKFNNATTT | not soluble
2 | MKGKITLFFTALCFGLTGCIAPPKGLEKERFSINSYREISPQDLTCHCKTVRLGGKIVNTTVLANQTKIEVLSLPVSSISAKPFVELQSDGRFIVYFNGFVEPENLKERYITVGGQLAGTEKGKIEQADYTYPVVQADKYRIWTLSTTYDYPTDDWDEDDDWGFFRWRHRLWYVQPEIHYYLN | not soluble
3 | MKGLCSSDTRQYLPGHQLWEAPVQIRRYSAVIHHATKCQWGVIPSRTINVSLHQTRRMRVAAVGIGGAGGRIVERLWQDNERRETTYLGAACAVDTDTEALDELDALPADRRYAFGLSETNGTGTNGDRTSGTAAIEDERLEVRRAIDELVTSDIDAVVLVAGLAGGTGSGATAHIADALREVYSIPVYCLSVLPAGRDDDAAANTMQALRALESTVDGQILFDNEAWLGSGQTVESASETLNETIVARLGALFAAGEATAPDAVGQSVVDASEIINTLSDAGFTTLGYASQDLQTGAGSGDGTVIDQLKNRFLGDNADDVDEIEAYNAVETTLRRAVRGKLTAQCELDSADRALAVFAGPPAWLIRDAVTDGRRWLTEELQSPEVRSGLEHHHHHH | not soluble
4 | MKGQVVSLHLGLGSGLPKPRVEALELVAGFGAKGDRHAGKDPDRAVLVAGLSAYEKAQGAGIPLPYGALGENLLLDLDPHALPPGARLRVGEALLELSQVCPVCKSLSQFDLRLPKLLYGGRGVYARVLEGGVVRVGDPVLVLAPAR | soluble
5 | MKGRRPPASPTAAASAQLELPLLAPPAAPDAAPPSADPAQPDPAAPLGPDQRRLALGERTLVYHLKRSSRRTIGFVVDDRGLSITAPRWVTLAEIEHAIAEKQKWIFAKLAEWHTSAARRVLPPMRWEDGATLPFLGKPVMLKLESPIGALVFDADMRTLHLGLPPTATGQQIKDRVQGWLQTQARRLFGERLDVYAERLGVRHSAYALSSAATRWGSCTADGKIRLNWRLVHFPLSLIDYVVAHELAHLKEMNHSPRFWDTVESIFPEFREAREQLRSHPPEYLPVFLEHHHHHH | not soluble
6 | MKHITIIGAGLAGTLCGLYLARRGYEVELFESRPDIRNSPTDYGRSINLALSCRGITALKAMNLLSEVNKIMVPMRARAIHEANGEVHYQPFGRYIDEYINAISRSDLNALLLNKAELCPNIKLHFNMKLHSLDIHNKKIKFENKNGDFVEASYHRLIGADGAPSHVRDMLKNEGIVSASRDFLSHGYKELSISKKHTKGMAREHLHLWPRDSFMLLGNPNPDDSITGSLFLANEGKDSFAELNNEEKLHLFFKTQFPDAYAAMPNLVQEFFGNPTGHLSTIQCSPWYYKDECLLIGDAAHGIIPFFGQGMNSAFEDCRILDELLDEYQDDWSRVNPLFYEQRKVNTDAIAKMSMDNYHEIHSDIRNPKFILQKQIERELMLRYPEHYVSMHVLVMFTNTPYAKAMAIGELQSGLLEQICFPITDIKELNWQEVEKLLGIYDKKLAKIILEHHHHHH | soluble
7 | MKHMLIAGGGIGGLSAAISLRKAGFSVTLCEAASENRKTGAGILQPQNALAVLKELGVFEDCCKHGFQTEWFKTFDEQGNLLFQVSESFLDDSLPGRNNILRKTLNDILMKHAEAVGVDIKWGKKVVAYEETAESVTALCEDGEKMQADILAGFDGIHSVVRDKMLQKETEKEHLGMGAWRFYIELPDYTFEDATFMYRSGDTQIGVVPLAQHAGYVFVLQPCTSDYWDEEDTRFDRVKEILSGFRGLDFVTKHMSKQHPVIFNKLEQVAVQEPWHKGRVIIGGDAAHAGAPTLAQGAAMAIEDAIVLAEELQNHADHETALQAYYKRRAPRALKVQNLSSEIVRRRLKGEPGAEELIGECYAVLREGYLEHHHHHH | not soluble
8 | MKHTEESLMSTTEKSRKAEEDDEKDMKKRTQFPSSSTSSDPPVGIGGSGALVVNRRRQEGNPVLKYVRNVRYEWGDIGPDFECGPTFGVVYLSFKYHKQHPEYVYTRINGNAENRYRNKVLLGYCNMEEPRHVLRELNMICFREAWTFVVVYTVEEAAEYIELFKTTQKKEITIKKKAIDDGGDSSMSDERRRNREAAIGFLTAARSITKTDADRLLFHFGTLQAISTASETSISACPGVGPIKAKNLHSFLHAIISPNEQD | not soluble
9 | MKIAIIGATGHAGSAIFKEALKRGHEVTGYVRHPDKSVGILPPDADLIQQDAFTLTREQLTGYDAVIDAFATTVEQAYLHIDLADHLIHELRNTDKPRVIFILGAGSLKNGDQTLYDTLKKDPHAAAFINTPLNQFRELQLLRWTDNVNWLGISPSANFQPGPATAYVRGKDELLKDDSGKSVLNSDTLAVALLDELENPTIKQARFTARNALEHHHHHH | soluble
10 | MKICLIDETGAGDGALSVLAARWGLEHDEDNLMALVLTPEHLELRKRDEPKLGGIFVDFVGGAMAHRRKFGGGRGEAVAKAVGIKGDYLPDVVDATAGLGRDAFVLASVGCRVRMLERNPVVAALLDDGLARGYADAEIGGWLQERLQLIHASSLTALTDITPRPQVVYLDPMFPHKQKSALVKKEMRVFQSLVGPDLDADGLLEPARLLATKRVVVKRPDYAPPLANVATPNAVVTKGHRFDIYAGTPV | not soluble
11 | MKIEKINENKIKVTISIDDLLERNIDLDTLNYNTPAAQELFWDMMEQAEIQFGFDASDSQICVEAIPDPEEGFVIIITKLDEDGEFESIHKYIKNRFRKSDLRVRKRNSRVSSSIVIYFFNNFEDLCSVCQKLRDIYSGESTLYRLKGVYYLVLTKNSWSVANLRSFEPILSEFGTKVSNVSFYEGYLNEHGEKIIEYNAVETINDYFHR | soluble
12 | MKIGIFTDCYYPQINGVVTSTMNLQKELEKLNHEVYIITTTFPNFKDEDEKHIIRIPSIPFFKWSEFRIGLFLKHTKAYNKVKALNFDIVHTQTEFSMGNFGTFIAKDLNIPCIHTYHTVYEEYTHYISNFGKSPLKKVVRKLSKRYIAHFSGVIAPTEKTRDLLISYGVKNKIYVVPTGINLEKFKKDIPDAETNSLLKSFNIKKDSFKLIFLGRISKEKNIETLINIMPKIVSENNNIQLIIVGDGPDRLELEERVRYLDLQDNVIFTNRIPNDKVPIYYKAADLFISPSKTETQGLTILEAMAAGVPVLVYDDTNIKGLVLHKKTGLLFKENDELLDNIKFALNNKEEIQSYAKEAFKIAEDFSSANFAKKVERIYKELINQ | not soluble
13 | MKIGIIGATGKAGSRILKEALDRGHEVTAIVRNAAKITEENVKVLEKDVFSLTSNDLQAFDVVVNAFGAPAGHDHLHVDAGNVLIEAMKGAPNTKLVVVGGAGSLFVDEEKTTRVFETPGFPEEYLATAQNQGKNLEILQQTNDITWTFISPSALFALGKRTGSYKAGKDNLLVNAKGDSYVSYEDFAVAALDEIENPKHVNERFTVVSEAE | not soluble
14 | MKIHKTLTPWAAALLLASTAWPALAEVSTVRLAKQFGIGYLPLTLVEELDLLEKHAAASGHEITTEWLRFTGGSGMNEALLSGNLDLAAGGTGPLFTIWARTRENLKIKGVAALASMPLHLMTSNPEVKSLADFSQGDKIALPAVKTSIQAVTLQMASKQAFGPDKATAMDAFTVSMGHPDAQLALTGGQSEVTAHFGSPPFQNLEAKVEGIHKVLDSYDVLGGSHTFTVVWAADKFISENPEITKAFMAALEESMELISTNPEKAAEIWMAAERSPLSREEVVALIRDEQTVWTTTPERTLPYVEFLSESGLIKTSAEDWSEIFFDTMSGKEGS | not soluble
15 | MKIKEVIVVEGKDDTAAIRRAVDADTIETNGAAVGADVIERIKLAKERRGVIIFTDPDFPGEKIRRTIAEQVPGCKHAFLPREAAKAKNGKGIGVEHASPDEIRRALANVYEEASDWKEEITFAELIEAGLIGGAMARRRRQRLGEELKIGYANGRQFHKRLQVFRISRDAFYAALAHVMQEEADDV | not soluble
16 | MKILAFETSTEACSVALHVDGAVRERFELAPRRHAELALPWAEQLLAEAGISRRQLDAIAVGRGPGAFSGVRLAIGIVQGIALALDLPVLAISTLQVLALRAPAEASHVLACIDARMGEVYAGLFERQGEALLTLGSEVVCAPEAVLLPQSTPQWAGVGTGLAAGEMPLQQRFAGRLSSVDAAALPHAADLLTLALPAALRGEGVAPERVEPAYLRDNVALTLVEQQAARAAKAAAVPRLEHHHHHH | not soluble
17 | MKILRFNEGRWGVLEGELVLETDGPGGNPTGRRYDLASVTLLPPATPTKIVCVGRNYREHIREMGHDFGEDLPKEPGLFLKGPNALARPGNPRDPWGTAEPVPYPFFTEELHYEGELAVVVGDRMRHVPPEKALDHVLGYTVAVDITARDVQKKDLQWVRAKSADKFLPLGPWLETDLNPQDTWVRTYVNGTLRQEGHTSQMIFSVAEILSYISTFMTLEPLDVVLTGTPEGVGALRPGDRLEVAVEGVGTLFTLIGPKEERPW | soluble
18 | MKIPIPSIGHVALLASAILFASSANAASDEDGIIIYNAQHESFAKSWAEGFTKDTGIKVTLRNGKDSELGNQLIQEGSSSPADVFLTENSPAMVLVDNAKLFAPLDAATQAQVAKEYRPEDGRWTGIAARSTVFVYNPAKISEAELPKSLMDLAKPEWKGRWAASPSGADFQAIVSAMLALKGEQATLEWLKAMKTNATAYKGNSTVMKAVNAGQIDGGVIYHYYPFVDQAKTGENSGNIKLHYFKNKDPGAFVSISGAGVLASSKHPQQAQKFVQWVTGKAGQDFLRESNSAFEYAVGVNAASNPKLVPLKDLDPPKVEVSKLNSKKVVELMTEAGLL | not soluble
19 | MKIRSTALVKGFRQSTPYVNAHRGKTMVIMLGGEAVAHNNFGNIINDIALMHSLGIKVVVVYGARPQINQLLEKQDLTTPYHKNIRITDEAALSVVMQAAGQLQLAITARLSMSLNNTPMAGTQLNVVSGNFVIAQPLGVDDGVDYCHSGRIRRIDTDAINRTLDQGSIVLLGPIASSVTGECFNLLSEEVATQLAIKLGADKLIGFCSEQGVIDDNGNAVAELLPIEAEHVIKTLSENHASDSDYNTGTLRFLKGSIAACRAGVPRSHLISYKVDGALIQELFSFDGIGTQVVMASAEQVRQAGIDDIGGILELIHPLEEQGILVRRSREQLEQEIGKFTIIEKDGLIIGCAALYPYSEERKAEMACVAIHPDYRDGNRGLLLLNYMKHRSKSENINQIFVLTTHSLHWFREQGFYEVGVDYLPGAKQGLYNFQRKSKILALDL | not soluble
20 | MKIYVDADACPVKDVIIFEATKAEIPVTLVTSFSHYSNAEQPKGVETIYVDSGADAADYRIMQLAQKEDLIVTQDYGLASLALAKGCIVLHHKGYKYTNENIDQLLQTRYLSAMVRKSGKRTKGPKPFTAEDKEKFRALFKSMIPLLEHHHHHH | soluble
21 | MKIYVSCDIEGLAGIATFDMEKEDTVLFRELYHQHVAWLIEGIQKSAKNEQITEITIADSHSRGLNLAYARLAEMDERISLVSGFPRMDYMMSGLDSSYDVVFFLGYHAGIGKQKGNMDHGYSASVAYDLKINDLAMNETTINAAYASELGVPVGLIIGESGLEEQLFQEKMMPEVPFVSTKESLGRYAIKNRPMQQVREAIVATTSQVLTSFALSELPRYALQTPATVKLQCVTTAQADRIEMLPMIKRIDGRTVSFVGETMKDVMNGIVAVVGLGGTSY | not soluble
